Assay results published in patent US20200017592A1 (Regeneron, published 2020).
Where a chain is given by its changes, count along the chain named.

B1: H4H14699P2 (antibody, human IgG4 S228P, kappa, V domains shown)
VH: EVQLVESGGGLVQPGRSLRLSCAASGFTFDDYAIHWVRQAPGKGLEWVSVISWNSDIIGYADSVKGRFTVSRDNAKNSLYLQMNSLRTEDTALYYCAKGYNWNFFDYWGQGTLVTVSS
VL: EIVLTQSPATLSLSPGERATLSCRASQSVSSYLAWYQQKPGQAPRLLIYNAANRATDIPARFSGSGSGTDFTLTISSLEPEDFAVYYCQQRSNWPLTFGGGTKVEIKR
notes: Fully human anti-IL-36R antibody
B2: H4H14708P2 (antibody, human IgG4 S228P, kappa, V domains shown)
VH: B1 VH with G10D, I34M, I57V, G59A, A61S, V70I, A97T, Y100H, N101K, N103S
VL: B1 VL with V29I, Y49F, A51V
notes: as for B1
B3: H4H14700P2 (antibody, human IgG4 S228P, kappa, V domains shown)
VH: B1 VH with I34M, A40T, I57V, G59A, A61S, V70I, R87G, Y100H
VL: B1 VL with A51V, S77G, Y87F
notes: as for B1
B4: H4H14706P2 (antibody, human IgG4 S228P, kappa, V domains shown)
VH: B1 VH with A23T, A40S, I57V, V70I, T88A
VL: B1 VL
notes: as for B1

Each binder was assayed against T1, human IL-36R extracellular domain expressed with a C-terminal mouse IgG2a Fc tag (hIL-36R-mFc) (human; mouse, UniProt Q9HB29 20-337) (assay: SPR Biacore 4000, mAb captured on anti-hFc, 25C).
T1 construct: not shown: mouse IgG2a Fc, E98-K330
T1 sequence (looked up): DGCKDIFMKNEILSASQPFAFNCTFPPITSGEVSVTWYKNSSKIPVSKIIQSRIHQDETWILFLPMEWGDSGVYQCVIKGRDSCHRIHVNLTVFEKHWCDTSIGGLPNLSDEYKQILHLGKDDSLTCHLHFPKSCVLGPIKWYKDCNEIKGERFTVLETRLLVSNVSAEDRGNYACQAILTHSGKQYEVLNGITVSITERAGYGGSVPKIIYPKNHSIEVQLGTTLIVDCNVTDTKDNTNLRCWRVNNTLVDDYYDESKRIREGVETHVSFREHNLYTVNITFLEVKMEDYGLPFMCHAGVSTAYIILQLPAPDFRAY
Protocol: (§1) Equilibrium dissociation constants (KD values) for IL-36R binding to purified anti-IL-36R antibodies were determined using a real-time surface plasmon resonance biosensor using a Biacore 4000 instrument. The Biacore sensor surface was first derivatized by amine coupling with a monoclonal mouse anti-human Fc antibody (GE, # BR-1008-39) to capture anti-IL-36R monoclonal antibodies. All binding studies were performed in 0.01 M Hepes pH 7.4, 0.15 M NaCl, 3 mM EDTA, and 0.05% v/v Surfactant Tween-20 (HBS-ET running buffer) at 25° C. and 37° C. Different concentrations of IL-36R reagents, human IL-36R extracellular domain expressed with a C-terminal myc-myc-hexahistidine tag (hIL-36R-MMH), Macaca fascicularis IL-36R extracellular domain expressed with a C-terminal myc-myc-hexahistidine tag (mfIL-36R-MMH: mROR1 signal sequence (M1-A29). Macaca fascicularis IL36R_ecto domain (D20-A336).mycmycHis6), human IL-36R extracellular domain expressed with a C-terminal mouse IgG2a Fc tag (hIL-36R-mFc: mROR1 signal sequence (M1-A29)-human IL36R (D20-Y337)-mouse IgG2aFc (E98-K330)) or an in-line fusion protein of human IL-36R extracellular domain and IL1RAcP extracellular domain expressed with mouse IgG2a Fc tag (hIL-36R-Trap-mFc: mROR1 signal sequence (M1-A29)-human IL36R ecto domain (D20-Y337)-human IL1RacP ecto domain(S21-E359)-mouse IgG2aFc) in HBS-ET running buffer (ranging from 100 nM to 3.7 nM, 3-fold dilutions) were injected over the anti-IL-36R antibody captured surface for 4 minutes at a flow rate of 30 μL/minute and their dissociation in HBS-ET running buffer was monitored for 10 minutes. Kinetic association rate constant (kₐ) and dissociation rate constant (kd) were determined by fitting the real-time sensorgrams to a 1:1 binding model using Scrubber 2.0c curve fitting software. Binding dissociation equilibrium constants (KD) and dissociative half-lives (t_{1/2}) were calculated from the kinetic rate constants as: […]

Row | Binder | 100 nM hIL-36R-mFc Bound (RU) | Kd | koff | kon | t1/2
1 | B1 | 150 RU | 0.359 nM | 0.000203 s⁻¹ | 564000 M⁻¹ s⁻¹ | 57 min
2 | B2 | 146 RU | 0.317 nM | 0.000128 s⁻¹ | 403000 M⁻¹ s⁻¹ | 90 min
3 | B3 | 128 RU | 0.233 nM | 0.00012 s⁻¹ | 517000 M⁻¹ s⁻¹ | 96 min
4 | B4 | 163 RU | 0.23 nM | 0.000132 s⁻¹ | 575000 M⁻¹ s⁻¹ | 87 min

These binders were tested against T2, in-line fusion protein of human IL-36R extracellular domain and IL1RAcP extracellular domain expressed with … (human; mouse, UniProt Q9HB29 20-337; Q9NPH3 21-359, limits assumed) (assay: SPR Biacore 4000, mAb captured on anti-hFc, 25C).
T2 construct: not shown: mouse IgG2a Fc
T2 sequence (looked up): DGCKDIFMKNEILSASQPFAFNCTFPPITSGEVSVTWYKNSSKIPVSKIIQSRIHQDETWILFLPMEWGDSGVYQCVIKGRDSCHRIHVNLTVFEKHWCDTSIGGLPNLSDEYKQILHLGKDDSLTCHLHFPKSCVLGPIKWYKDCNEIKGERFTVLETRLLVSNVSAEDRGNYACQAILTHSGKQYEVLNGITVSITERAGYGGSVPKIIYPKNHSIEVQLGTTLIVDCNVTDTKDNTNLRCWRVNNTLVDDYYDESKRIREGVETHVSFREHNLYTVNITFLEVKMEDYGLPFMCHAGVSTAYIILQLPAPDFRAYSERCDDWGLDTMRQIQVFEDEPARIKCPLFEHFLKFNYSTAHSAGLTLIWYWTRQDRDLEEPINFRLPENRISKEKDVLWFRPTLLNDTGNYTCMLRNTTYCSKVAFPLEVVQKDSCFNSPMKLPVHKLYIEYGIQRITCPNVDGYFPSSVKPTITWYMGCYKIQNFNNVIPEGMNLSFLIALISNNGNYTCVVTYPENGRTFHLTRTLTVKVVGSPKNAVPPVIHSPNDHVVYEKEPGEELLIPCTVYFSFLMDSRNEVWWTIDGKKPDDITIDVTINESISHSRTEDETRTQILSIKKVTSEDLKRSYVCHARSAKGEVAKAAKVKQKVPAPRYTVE
Protocol: as §1

Row | Binder | 100 nM hIL-36R-Trap-mFc Bound (RU) | Kd | koff | kon | t1/2
5 | B1 | 188 RU | 0.458 nM | 0.000228 s⁻¹ | 498000 M⁻¹ s⁻¹ | 51 min
6 | B2 | 172 RU | 0.357 nM | 0.000129 s⁻¹ | 361000 M⁻¹ s⁻¹ | 90 min
7 | B3 | 157 RU | 0.283 nM | 0.000125 s⁻¹ | 442000 M⁻¹ s⁻¹ | 92 min
8 | B4 | 205 RU | 0.232 nM | 0.00011 s⁻¹ | 477000 M⁻¹ s⁻¹ | 105 min

What follows are binders tested against T1, human IL-36R extracellular domain … (assay: SPR Biacore 4000, mAb captured on anti-hFc, 37C).
Protocol: as §1

Row | Binder | 100 nM hIL-36R-mFc Bound (RU) | Kd | koff | kon | t1/2
9 | B1 | 186 RU | 0.767 nM | 0.000456 s⁻¹ | 594000 M⁻¹ s⁻¹ | 25 min
10 | B2 | 203 RU | 0.435 nM | 0.0002 s⁻¹ | 460000 M⁻¹ s⁻¹ | 58 min
11 | B3 | 174 RU | 0.39 nM | 0.000209 s⁻¹ | 535000 M⁻¹ s⁻¹ | 55 min
12 | B4 | 207 RU | 0.449 nM | 0.000266 s⁻¹ | 593000 M⁻¹ s⁻¹ | 43 min

These binders were tested against T2, in-line fusion protein of human IL-36R … (assay: SPR Biacore 4000, mAb captured on anti-hFc, 37C).
Protocol: as §1

Row | Binder | 100 nM hIL-36R-Trap-mFc Bound (RU) | Kd | koff | kon | t1/2
13 | B1 | 229 RU | 1.06 nM | 0.000513 s⁻¹ | 484000 M⁻¹ s⁻¹ | 23 min
14 | B2 | 239 RU | 0.656 nM | 0.000253 s⁻¹ | 385000 M⁻¹ s⁻¹ | 46 min
15 | B3 | 216 RU | 0.555 nM | 0.000253 s⁻¹ | 455000 M⁻¹ s⁻¹ | 46 min
16 | B4 | 264 RU | 0.551 nM | 0.000271 s⁻¹ | 491000 M⁻¹ s⁻¹ | 43 min

The binders below were run against T3, human IL-36R extracellular domain expressed with a C-terminal myc-myc-hexahistidine tag (hIL-36R-MMH) (human, UniProt Q9HB29 20-337) (assay: SPR Biacore T200, mAb captured on anti-hFc, 25C, PBS-T pH 6.0 running buffer).
T3 construct: also called Human IL-36R-MMH; REGN2105
Protocol: (§2) Additional binding experiments were performed to determine the effect of pH on the rate of dissociation of IL-36R bound to purified anti-IL-36R antibodies, which was determined using a real-time surface plasmon resonance biosensor using a Biacore T200 instrument. The Biacore sensor surface was first derivatized by amine coupling with a monoclonal mouse anti-human Fc antibody (GE, # BR-1008-39) to capture anti-IL-36R antibodies. […] Different concentrations of hIL-36R-MMH and mfIL-36R-MMH prepared in PBS-T, pH7.4 buffer (ranging from 100 nM to 11.11 nM, 3-fold dilutions) were injected over the anti-IL-36R antibody captured surface for 4 minutes at a flow rate of 50 μL/minute and their dissociation in two running buffers, PBS-T, pH7.4 and PBS-T, pH 6.0, was monitored for 10 minutes. All of these binding kinetics experiments were performed at 25° C. and 37° C. Kinetic dissociation constant (kd) were determined by fitting the real-time sensorgrams to a 1:1 binding model using Scrubber 2.0c curve fitting software. Binding dissociative half-lives (t_{1/2}) were calculated from kd as: […]

T3 sequence (Q9HB29 other isoform, or with tags, fused parts or gaps limits assumed): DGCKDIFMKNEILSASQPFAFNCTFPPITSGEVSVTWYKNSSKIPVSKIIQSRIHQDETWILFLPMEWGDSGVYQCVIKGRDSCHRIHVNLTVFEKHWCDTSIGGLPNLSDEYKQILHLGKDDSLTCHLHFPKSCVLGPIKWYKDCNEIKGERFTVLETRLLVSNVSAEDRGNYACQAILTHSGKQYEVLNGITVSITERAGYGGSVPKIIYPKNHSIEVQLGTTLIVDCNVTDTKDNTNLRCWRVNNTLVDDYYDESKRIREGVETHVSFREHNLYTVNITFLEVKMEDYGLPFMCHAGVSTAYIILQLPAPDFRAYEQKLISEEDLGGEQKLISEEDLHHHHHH

Row | Binder | 100 nM Human IL-36R-MMH Bound (RU) | koff | t1/2
17 | B1 | 79 RU | 0.00293 s⁻¹ | 4 min
18 | B2 | 79 RU | 0.00163 s⁻¹ | 7 min
19 | B3 | 120 RU | 0.00172 s⁻¹ | 7 min
20 | B4 | 109 RU | 0.000927 s⁻¹ | 12 min

What follows are binders tested against T3, human IL-36R extracellular domain … (assay: SPR Biacore T200, mAb captured on anti-hFc, 25C, PBS-T pH 7.4 running buffer).
Protocol: as §2

Row | Binder | 100 nM Human IL-36R-MMH Bound (RU) | koff | t1/2
21 | B1 | 84 RU | 0.00193 s⁻¹ | 6 min
22 | B2 | 87 RU | 0.000796 s⁻¹ | 15 min
23 | B3 | 128 RU | 0.000795 s⁻¹ | 15 min
24 | B4 | 119 RU | 0.000616 s⁻¹ | 19 min

The binders below were run against T3, human IL-36R extracellular domain … (assay: SPR Biacore T200, mAb captured on anti-hFc, 37C, PBS-T pH 6.0 running buffer).
Protocol: as §2

Row | Binder | 100 nM hIL-36R-MMH Bound (RU) | koff | t1/2
25 | B1 | 83 RU | 0.00581 s⁻¹ | 2 min
26 | B2 | 95 RU | 0.00337 s⁻¹ | 3 min
27 | B3 | 144 RU | 0.0035 s⁻¹ | 3 min
28 | B4 | 132 RU | 0.00233 s⁻¹ | 5 min

The binders below were run against T3, human IL-36R extracellular domain … (assay: SPR Biacore T200, mAb captured on anti-hFc, 37C, PBS-T pH 7.4 running buffer).
Protocol: as §2

Row | Binder | 100 nM hIL-36R-MMH Bound (RU) | koff | t1/2
29 | B1 | 96 RU | 0.00415 s⁻¹ | 3 min
30 | B2 | 105 RU | 0.00177 s⁻¹ | 7 min
31 | B3 | 153 RU | 0.00169 s⁻¹ | 7 min
32 | B4 | 140 RU | 0.00131 s⁻¹ | 9 min
